In article PMC1865072 (Nucleic Acids Research, 2007):
Where two headings read alike, the source gives them in different places.

Tests used:
Assay in all cases: native MS
[1] = biological target: 15N-labelled Kis antitoxin (Killing suppressor) of the parD operon of plasmid R1 (Escherichia coli (plasmid R1))
[2] = biological target: 15N-labelled Kis antitoxin (Killing suppressor) of the parD operon of plasmid R1 (Escherichia coli (plasmid R1)); remark: listed apart in the source
[3] = biological target: the molecule itself

Chain of 15N-labelled Kis antitoxin (Killing suppressor) of the parD operon of plasmid R1 (Escherichia coli (plasmid R1)) (P13975 whole entry): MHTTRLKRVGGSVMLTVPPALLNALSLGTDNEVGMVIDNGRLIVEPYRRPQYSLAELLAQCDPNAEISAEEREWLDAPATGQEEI

Molecule: 15N-labelled Kis antitoxin (Killing suppressor) of the parD operon of plasmid R1 (natural protein)
- stoichiometry N (subunits in the oligomer) [1]: 2

Molecule: Kid toxin (Killing determinant) of the parD operon of plasmid R1 (from UniProt P13976 24-133) (natural protein)
- stoichiometry N (Kid per Kis (2:1)) [2]: 2
- stoichiometry N (Kid per Kis (2:2)) [2]: 1
- stoichiometry N (Kid per Kis (4:2)) [2]: 2
- stoichiometry N (Kid per Kis (4:4)) [2]: 1
- stoichiometry N (Kid per Kis (4:6), on the 30-bp parD DNA) [2]: 0.67
- stoichiometry N (Kid per Kis (2:1)) [1]: 2
- stoichiometry N (Kid per Kis (4:2)) [1]: 2

B1: Kid toxin (Killing determinant) of the parD operon of plasmid R1 (natural protein)
chain: MERGEIWLVSLDPTAGHEQQGTRPVLIVTPAAFNRVTRLPVVVPVTSGGNFARTAGFAVSLDGVGIRTTGVVRCDQPRTIDMKARGGKRLERVPETIMNEVLGRLSTILT
- stoichiometry N [3]: 2 subunits in the oligomer
